Source: patent US20170355757A1 (Regeneron, published 2017)
Blank lines part the entries; values can stand above or below the binder they belong to.

What was measured:
human C5 R885C-mmh [1] = molecular target: T1, human C5 R885C-mmh (human, UniProt P01031 19-1676); assay: SPR, mAb captured via anti-hFc, 37C
T1 construct: also called human C5 variant R885C
Method in brief: (§1)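 Antibodies captured on anti-human Fc surface in HBST (HEPES pH 7.4, 3 mM EDTA); C5 reagents (commercial human C5 or myc-myc-His-tagged variants) associated 3 min, dissociated 8 min, at 25 °C or 37 °C. Sensorgrams fitted 1:1; KD = kd/ka, t½ = ln2/(60×kd).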

human C5 R885H-mmh [2] = molecular target: T2, human C5 R885H-mmh (human, UniProt P01031 19-1676); assay: SPR, mAb captured via anti-hFc, 37C
T2 construct: also called human C5 variant R885H
Method in brief: as §1

monkey C5-mmh = molecular target: T3, monkey C5-mmh (monkey, UniProt P01031 19-1676 (human entry), limits assumed); assay: SPR, mAb captured via anti-hFc, 37C
T3 construct: Recombinant monkey C5 with a C-terminal myc-myc-hexahistidine tag
T3 chain: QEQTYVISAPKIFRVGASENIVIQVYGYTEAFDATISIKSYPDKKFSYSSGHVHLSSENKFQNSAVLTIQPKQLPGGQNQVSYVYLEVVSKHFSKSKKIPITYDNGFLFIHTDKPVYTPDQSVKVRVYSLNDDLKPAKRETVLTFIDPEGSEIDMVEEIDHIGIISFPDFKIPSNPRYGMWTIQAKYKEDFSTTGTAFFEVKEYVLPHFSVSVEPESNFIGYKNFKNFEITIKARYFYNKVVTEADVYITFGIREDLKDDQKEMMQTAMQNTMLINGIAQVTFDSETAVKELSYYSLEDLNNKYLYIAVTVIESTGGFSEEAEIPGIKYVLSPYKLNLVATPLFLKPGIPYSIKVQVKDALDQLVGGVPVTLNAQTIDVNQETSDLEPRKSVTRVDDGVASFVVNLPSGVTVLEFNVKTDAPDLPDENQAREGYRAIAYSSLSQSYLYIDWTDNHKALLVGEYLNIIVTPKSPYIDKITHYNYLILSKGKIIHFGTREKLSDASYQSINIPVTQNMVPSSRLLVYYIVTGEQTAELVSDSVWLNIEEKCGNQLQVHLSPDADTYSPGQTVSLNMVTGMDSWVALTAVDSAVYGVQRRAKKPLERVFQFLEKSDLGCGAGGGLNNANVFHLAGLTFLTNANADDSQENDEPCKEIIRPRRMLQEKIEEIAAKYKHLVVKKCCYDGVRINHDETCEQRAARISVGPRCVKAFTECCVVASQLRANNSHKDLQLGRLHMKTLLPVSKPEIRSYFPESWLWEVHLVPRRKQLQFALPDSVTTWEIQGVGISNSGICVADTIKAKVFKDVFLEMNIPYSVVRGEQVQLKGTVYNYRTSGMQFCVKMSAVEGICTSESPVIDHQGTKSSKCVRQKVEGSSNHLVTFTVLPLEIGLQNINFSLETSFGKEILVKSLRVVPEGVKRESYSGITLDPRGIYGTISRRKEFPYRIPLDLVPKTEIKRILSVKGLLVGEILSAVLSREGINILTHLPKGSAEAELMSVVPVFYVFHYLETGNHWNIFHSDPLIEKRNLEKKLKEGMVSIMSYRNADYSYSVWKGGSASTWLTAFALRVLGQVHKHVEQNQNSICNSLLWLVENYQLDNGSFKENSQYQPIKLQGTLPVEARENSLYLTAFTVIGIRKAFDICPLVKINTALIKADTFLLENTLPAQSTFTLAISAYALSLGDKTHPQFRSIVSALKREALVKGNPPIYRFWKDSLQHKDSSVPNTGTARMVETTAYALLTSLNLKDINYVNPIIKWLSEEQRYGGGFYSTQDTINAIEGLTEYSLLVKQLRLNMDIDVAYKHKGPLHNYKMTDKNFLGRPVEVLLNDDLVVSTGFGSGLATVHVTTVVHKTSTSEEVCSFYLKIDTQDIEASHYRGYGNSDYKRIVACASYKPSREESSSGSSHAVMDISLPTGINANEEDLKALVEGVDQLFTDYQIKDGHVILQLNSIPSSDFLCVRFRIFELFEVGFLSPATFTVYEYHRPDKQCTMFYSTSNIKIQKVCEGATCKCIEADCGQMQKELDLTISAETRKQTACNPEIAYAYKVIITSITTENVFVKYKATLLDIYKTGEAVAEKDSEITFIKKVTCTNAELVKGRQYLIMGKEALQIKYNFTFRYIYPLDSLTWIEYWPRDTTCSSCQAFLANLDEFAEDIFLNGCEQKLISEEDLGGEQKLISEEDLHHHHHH
Method in brief: as §1

human C5 R885C-mmh [3] = molecular target: T1, human C5 R885C-mmh; assay: SPR, mAb captured via anti-hFc, 25C
Description: (§2) Equilibrium dissociation constants (KD values) for C5 binding to purified anti-C5 antibodies were determined using a real-time surface plasmon resonance biosensor assay on a Biacore T200 instrument. The Biacore sensor surface was derivatized by amine coupling with a monoclonal mouse anti-human Fc antibody (GE Healthcare, # BR-1008-39) to capture anti-C5 antibodies expressed with human Fc constant regions. Biacore binding studies were conducted in HBST running buffer (0.01M HEPES pH 7.4, 0.15M NaCl, 3 mM EDTA, 0.05% v/v Surfactant P20).
(§3) Human C5 was obtained from a commercial source (EMD). Other C5 reagents were expressed with a C-terminal myc-myc-hexahistidine tag (subsequently referred to as C5-mmh). […] Association of all the C5 reagents to each of the captured monoclonal antibodies was monitored for 3 minutes and their dissociation in HBST running buffer was monitored for 8 minutes. All the binding kinetics experiments were performed at either 25° C. or 37° C. Kinetic association (kₐ) and dissociation (kd) rate constants were determined by fitting the real-time sensorgrams to a 1:1 binding model using Scrubber 2.0c curve fitting software. Binding dissociation equilibrium constants (KD) and dissociative half-lives (t %) were calculated from the kinetic rate constants as: KD (M)=kd/kₐ and t_{1/2} (min)=In2/(60×kd)

human C5 R885H-mmh [4] = molecular target: T2, human C5 R885H-mmh; assay: SPR, mAb captured via anti-hFc, 25C
Description: as §2, §3

human C5 = molecular target: T4, human C5 (human, UniProt P01031 19-1676); assay: SPR, mAb captured via anti-hFc, dissociation at pH7.4 vs pH6.0, 25C
T4 construct: Bought human C5 (EMD #204888, said elsewhere to be purified from plasma); also called hC5; complement component 5
Description: Effect of pH on the rate of dissociation of recombinant human C5 bound to purified anti-C5 monoclonal antibodies was determined using a real-time surface plasmon resonance biosensor using a Biacore T200 instrument. The Biacore sensor surface was first derivatized by amine coupling with a monoclonal mouse anti-human Fc antibody (GE, # BR-1008-39) to capture anti-C5 monoclonal antibodies expressed with human IgG4 Fc. All Biacore binding studies were performed using two running buffers PBS-T, pH7.4 (0.01M Na₂HPO₄/NaH₂PO₄, 0.15M NaCl, 0.05% v/v Tween-20, adjusted to pH7.4) and PBS-T, pH6.0 (0.01M Na₂HPO₄/NaH₂PO₄, 0.15M NaCl, 0.05% v/v Tween-20, adjusted to pH6.0). […] Binding dissociative half-lives (t %) were calculated from kd as: […]

- 100 nM Human C5 R885C-mmh Bound (RU) (human C5 R885C-mmh [1]): 64 RU
- Kd (human C5 R885C-mmh [1]): 3.64 nM
- koff (human C5 R885C-mmh [1]): 0.00249 s⁻¹
- kon (human C5 R885C-mmh [1]): 684000 M⁻¹ s⁻¹
- t1/2 (human C5 R885C-mmh [1]): 5 min
- 100 nM Human C5 R885H-mmh Bound (RU) (human C5 R885H-mmh [2]): 65 RU
- Kd (human C5 R885H-mmh [2]): 2.91 nM
- koff (human C5 R885H-mmh [2]): 0.00257 s⁻¹
- kon (human C5 R885H-mmh [2]): 881000 M⁻¹ s⁻¹
- t1/2 (human C5 R885H-mmh [2]): 5 min
- 100 nM monkey C5-mmh Bound (RU) (monkey C5-mmh): 146 RU
- Kd (monkey C5-mmh): 0.539 nM
- koff (monkey C5-mmh): 0.000289 s⁻¹
- kon (monkey C5-mmh): 537000 M⁻¹ s⁻¹
- t1/2 (monkey C5-mmh): 40 min
- 100 nM Human C5 R885C-mmh Bound (RU) (human C5 R885C-mmh [3]): 163 RU
- Kd (human C5 R885C-mmh [3]): 0.413 nM
- koff (human C5 R885C-mmh [3]): 0.000294 s⁻¹
- kon (human C5 R885C-mmh [3]): 711000 M⁻¹ s⁻¹
- t1/2 (human C5 R885C-mmh [3]): 39 min
- 100 nM Human C5 R885H-mmh Bound (RU) (human C5 R885H-mmh [4]): 187 RU
- Kd (human C5 R885H-mmh [4]): 0.433 nM
- koff (human C5 R885H-mmh [4]): 0.000298 s⁻¹
- kon (human C5 R885H-mmh [4]): 689000 M⁻¹ s⁻¹
- t1/2 (human C5 R885H-mmh [4]): 39 min
- t1/2 Ratio pH7.4/pH6.0 (human C5): 0.6
B1: H4H12167P (antibody, human IgG4, V domains shown)
VH: QVQLVESGGGLVKPGGSLRLSCAASGFTFSDSYMSWIRQAPGKGLEWISYIGSSGNTFYYADSVKGRFTISRDNANNLLYLQMTSLRAEDTAVYYCAREEGDFWSAVDSWGQGTLVTVSS
VL: DIQLTQSPSFLSASVGDRVTITCWASQGISSYLAWYQQKPGKAPKLLIHTASTLQSGVPSRFSGSGSGTEFTLTISNLQPEDFATYYCQQLNSYPFTFGPGTKVDIK
notes: Human IgG4 Fc with S108P hinge mutation (H4H)

- 100 nM Human C5 R885C-mmh Bound (RU) (human C5 R885C-mmh [1]): 78 RU
- Kd (human C5 R885C-mmh [1]): 2.01 nM
- koff (human C5 R885C-mmh [1]): 0.000957 s⁻¹
- kon (human C5 R885C-mmh [1]): 477000 M⁻¹ s⁻¹
- t1/2 (human C5 R885C-mmh [1]): 12 min
- 100 nM Human C5 R885H-mmh Bound (RU) (human C5 R885H-mmh [2]): 80 RU
- Kd (human C5 R885H-mmh [2]): 1.63 nM
- koff (human C5 R885H-mmh [2]): 0.000963 s⁻¹
- kon (human C5 R885H-mmh [2]): 592000 M⁻¹ s⁻¹
- t1/2 (human C5 R885H-mmh [2]): 12 min
- 100 nM monkey C5-mmh Bound (RU) (monkey C5-mmh): 78 RU
- Kd (monkey C5-mmh): 1.85 nM
- koff (monkey C5-mmh): 0.00103 s⁻¹
- kon (monkey C5-mmh): 556000 M⁻¹ s⁻¹
- t1/2 (monkey C5-mmh): 11 min
- 100 nM Human C5 R885C-mmh Bound (RU) (human C5 R885C-mmh [3]): 51 RU
- Kd (human C5 R885C-mmh [3]): 0.366 nM
- koff (human C5 R885C-mmh [3]): 0.000139 s⁻¹
- kon (human C5 R885C-mmh [3]): 379000 M⁻¹ s⁻¹
- t1/2 (human C5 R885C-mmh [3]): 83 min
- 100 nM Human C5 R885H-mmh Bound (RU) (human C5 R885H-mmh [4]): 51 RU
- Kd (human C5 R885H-mmh [4]): 0.216 nM
- koff (human C5 R885H-mmh [4]): 0.000142 s⁻¹
- kon (human C5 R885H-mmh [4]): 659000 M⁻¹ s⁻¹
- t1/2 (human C5 R885H-mmh [4]): 81 min
- t1/2 Ratio pH7.4/pH6.0 (human C5): 0.6
B2: H4H12171P (antibody, human IgG4, V domains shown)
VH: EVQLVESGGGVVRPGGSLRLSCAASGFTFDEYGMTWVRQVPGKGLEWVSGITWNGGFTDYTDSVKGRFTSSRDNAKNSLYLQMNSLRAEDTALYYCARDGYSSSWGAYDIWGQGTMVTVSS
VL: DIQMTQSPSSLSASVGDRVTITCRASQSISTYLNWYQQKPGKAPKLLIYAASSLQSGVPLRFSGSGSGTDFTLTISSLQPEDFASYFCQQSYSTPYTFGQGTKLEIK
notes: as for B1
